The text below walks through data of publication doi:10.1101/2023.02.21.529347v1.

For this data set, the system named is CC1(C)[C@H]2CC=C(C=O)[C@@H]1C2. The experiment in a line: purified protein. Particulars: co-substrate F420H2; apparent value; fit with substrate inhibition.

The term Km denotes the concentration of substrate that gives half-maximal velocity. The kcat is the number of substrate molecules converted per active site and unit of time at saturation. For the substance “MSMEG_2850 (Mycolicibacterium smegmatis MC2 155; Y124M)”, the Km was 260 ± 20 µM and the kcat stood at 0.65 ± 0.018 s⁻¹.
